Measurements reported in patent US11464867B2, “Multimeric elastin-like polypeptides” (University of Southern California, priority 2018, dated 2022).
“And” between values parts separate entries of the source, which are not always exact repeats. Equal values may be shown once. “Also recorded” adds a separate entry of the source.

Assays:
[1] = ATRA encapsulation in 4PA, two phase method, HPLC; assay type: physicochemical; settings: control ELP
Description: FIG. 21: SDS PAGE was used to resolve the purified 4PA fusion protein. To formulate ATRA-loaded 4PA, a two phase encapsulation method was adopted. After removing undissolved drug, HPLC was used to quantify 4PA and ATRA concentrations. Encapsulation ratio, defined as CATRA/C4PA was 2.7, theoretical maximum being 4.

[2] = Dynamic light scattering (DLS) hydrodynamic radius and stability; assay type: physicochemical; settings: DLS intensity; 20 μM
Description: FIGS. 5A-5D: CA192 (SEQ ID NO: 3) has a good stability in terms of hydrodynamic radius. There are two fractions present in the CA192 (SEQ ID NO: 3) solution: an aggregated form and dimeric form. A dimerized form has similar hydrodynamic radius, Rh as A192. […] Drug-loaded CA192 (SEQ ID NO: 3) has a mean Rh of 64.5±0.5 nm (p<0.05). […] (FIG. 5C) Size Exclusion Chromatography (SEC) was conducted to fractionate CA192 (SEQ ID NO: 3) depending on their particle size. Two fractions were observed. […] In contrast, the fraction 1 contains a mixture of larger aggregates.
The hydrodynamic radius (Rh) of both the loaded and unloaded fusion protein, along with plain A192, was measured via dynamic light scattering (DLS) using a DynaPro Plate Reader II from Wyatt Technology. Before the DLS measurement, solutions were filtered through […] pore size filters. The concentration of each solution was then adjusted to 20 μM. 60 μL from each sample was pipetted into three different wells on the plate reader and covered by 15 μL mineral oil each to avoid solvent evaporation. […] Briefly, the fusion solution was incubated at 37° C. for different periods of time up to 48 h and the mean Rh of CA192 at these different time points was measured with DLS. […] (FIG. 5D) Through measuring the CA192 concentration of both fractions, Applicants determined that 20.8% by mass in solution is represented by the multimerized particles. […]

[3] = tested on: HeLa cells; assay: HeLa cell uptake, co-localization with lysosomes (confocal microscopy); assay type: cell-based; settings: 30 μM rhodamine-labeled ELP; 120 min; LysoTracker Green
Description: Lysosomes were labeled by LysoTracker Green® having the structure:
In order to further validate the potential efficacy of CA192 working as a potent drug binding domain, an in vitro cell uptake study was performed. Briefly, CA192 and A192 was labeled with rhodamine and HeLa cell lysosome with LysoTracker Green (LTG)® having the structure as described herein. For the treatment group, HeLa cells were incubated with 30 μM of rhodamine-labeled (rh)-CA192 and 70 nM of LTG for 120 min. For the control group, HeLa cells were incubated with 30 μM of rhodamine-labeled (rh)-A192 and 70 nM of LTG for 120 min. Cells were then rinsed with warm HBSS three times, maintained in the fresh culture medium, and imaged by confocal microscopy. Images were acquired using a Zeiss laser scanning microscope 510 Meta NLO confocal imaging system equipped with Argon, red HeNe, green HeNe laser, and a Coherent Chameleon Ti-Sapphire laser (LSM) mounted on a vibration-free table (Carl Zeiss, Thornwood, N.Y.). All images were acquired using a Plan-Apochromat 63× Oil immersion lens with a working distance of 0.19 mm.

[4] = Phase transition temperature by optical density (UV-Vis, 350 nm) versus temperature; assay type: physicochemical; settings: mean ± 95% CI, Table 2
Description: The temperature with the maximum positive slope was defined as the phase transition temperature for each condition. (FIG. 2B) The concentration-temperature phase diagram was determined for both ELPs, and fit to the following equation: Tt=b−m Log10[CELP].
Both ELPs at different concentrations (5 μM to 100 μM) were subject to a precisely controlled temperature increase from 25 to 75° C. at a rate of 1° C./min. The Tt of ELPs is defined as the temperature at which the first derivative of the optical density with respect to the temperature reaches a maximum.

B1: (VPGAG)192 (protein)
chain: VPGAGVPGAGVPGAGVPGAGVPGAGVPGAGVPGAGVPGAGVPGAGVPGAGVPGAGVPGAGVPGAGVPGAGVPGAGVPGAGVPGAGVPGAGVPGAGVPGAGVPGAGVPGAGVPGAGVPGAGVPGAGVPGAGVPGAGVPGAGVPGAGVPGAGVPGAGVPGAGVPGAGVPGAGVPGAGVPGAGVPGAGVPGAGVPGAGVPGAGVPGAGVPGAGVPGAGVPGAGVPGAGVPGAGVPGAGVPGAGVPGAGVPGAGVPGAGVPGAGVPGAGVPGAGVPGAGVPGAGVPGAGVPGAGVPGAGVPGAGVPGAGVPGAGVPGAGVPGAGVPGAGVPGAGVPGAGVPGAGVPGAGVPGAGVPGAGVPGAGVPGAGVPGAGVPGAGVPGAGVPGAGVPGAGVPGAGVPGAGVPGAGVPGAGVPGAGVPGAGVPGAGVPGAGVPGAGVPGAGVPGAGVPGAGVPGAGVPGAGVPGAGVPGAGVPGAGVPGAGVPGAGVPGAGVPGAGVPGAGVPGAGVPGAGVPGAGVPGAGVPGAGVPGAGVPGAGVPGAGVPGAGVPGAGVPGAGVPGAGVPGAGVPGAGVPGAGVPGAGVPGAGVPGAGVPGAGVPGAGVPGAGVPGAGVPGAGVPGAGVPGAGVPGAGVPGAGVPGAGVPGAGVPGAGVPGAGVPGAGVPGAGVPGAGVPGAGVPGAGVPGAGVPGAGVPGAGVPGAGVPGAGVPGAGVPGAGVPGAGVPGAGVPGAGVPGAGVPGAGVPGAGVPGAGVPGAGVPGAGVPGAGVPGAGVPGAGVPGAGVPGAGVPGAGVPGAGVPGAGVPGAGVPGAGVPGAGVPGAGVPGAGVPGAGVPGAGVPGAGVPGAGVPGAGVPGAGVPGAGVPGAGVPGAGVPGAGVPGAGVPGAGVPGAGVPGAGVPGAGVPGAGVPGAGVPGAGVPGAGVPGAGVPGAGVPGAGVPGAGVPGAGVPGAGVPGAGVPGAG
- ATRA peak on HPLC after encapsulation [1]: not detectable
- mean hydrodynamic radius (Rh) [2]: 7.3±0.6 nm and 7.3±0.4 nm
- co-localization with lysosomes [3]: obvious co-localization with lysosome; also recorded: co-localized with lysosomes; also recorded: co-localizing with lysosomes
- Slope, m ([4]; fit Tt = b - m Log10[CELP]): 8.3 ± 0.28 ° C./Log10(μM)
- Intercept, b ([4]; intercept at 1 μM): 72.3 ± 0.41 °C
